This is an account of results in PMC11634027.

The target in assay [1] is Ds-TM-ICD-ΔD-II:V5 (Drosophila). The experiment in a line: co-IP; S2 cells co-transfected; lysed in RIPA buffer; V5-tagged Ds construct precipitated with V5-Trap magnetic agarose beads, 1 h; blots with anti-V5 and anti-FLAG (Figs 4E, 5G, 6D,F, 8K).
In assay [2] the target is Ds-TM-ICD-ΔD-III:V5 (Drosophila). Description: co-IP; S2 cells co-transfected; lysed in RIPA buffer; results in supplementary figures (S6-S9) or without a figure; which beads (V5-Trap or Fab-Trap) is not told in what was shown.
Assay [3] concerns the target Ds-TM-ICD-ΔD-II:V5 (Drosophila). The description is as above.
Assay [4] concerns the target Ds-TM-ICD-ΔD-III:V5 (Drosophila). The experiment in a line: co-IP; S2 cells co-transfected; lysed in RIPA buffer; V5-tagged Ds construct precipitated with V5-Trap magnetic agarose beads, 1 h; blots with anti-V5 and anti-FLAG (Figs 4E, 5G, 6D,F, 8K).

In the case of “FLAG:Lft (Lowfat) (from UniProt Q9VKY1 1-268) (natural protein)”, the co-precipitation relative to Ds-ICD full length in assay [1] turned out to be 15%.
Regarding “Sple-N:FLAG (from UniProt A1Z6W3 1-349) (domain or fragment)”, the co-precipitation relative to Ds-ICD full length was 35% in assay [2] and 30% in assay [3].
As to “MyoID:FLAG (from UniProt Q23978 1-1011) (natural protein)”, the co-precipitation relative to control (Ds-ICD:V5) in assay [4] is 40%; in assay [1], 57%.
